According to US20260022128A1 (AbbVie / Abbott, published 2026):

B1: ADC-1 (AbA conjugated to linker drug LD1, structural formula VIII) (antibody, IgG1, V domains shown)
VH: QVQLVQSGAEVKKPGASVKVSCKASGYIFTAYTMHWVRQAPGQGLEWMGWIKPNNGLANYAQKFQGRVTMTRDTSISTAYMELSRLRSDDTAVYYCARSEITTEFDYWGQGTLVTVSS
VL: DIVMTQSPDSLAVSLGERATINCKSSESVDSYANSFLHWYQQKPGQPPKLLIYRASTRESGVPDRFSGSGSGTDFTLTISSLQAEDVAVYYCQQSKEDPLTFGGGTKVEIKR
modifications: TOP1i linker drug LD1 (structural formula V) linked via sulfhydryl groups of reduced cysteine residues; positions not given
B2: ADC-2 (AbA conjugated to linker drug LD2, structural formula IX) (antibody, IgG1, V domains shown)
VH: QVQLVQSGAEVKKPGASVKVSCKASGYIFTAYTMHWVRQAPGQGLEWMGWIKPNNGLANYAQKFQGRVTMTRDTSISTAYMELSRLRSDDTAVYYCARSEITTEFDYWGQGTLVTVSS
VL: DIVMTQSPDSLAVSLGERATINCKSSESVDSYANSFLHWYQQKPGQPPKLLIYRASTRESGVPDRFSGSGSGTDFTLTISSLQAEDVAVYYCQQSKEDPLTFGGGTKVEIKR
modifications: TOP1i linker drug LD2 (structural formula VI, maleimide, hydrolyzed) linked via sulfhydryl groups of reduced cysteine residues; positions not given
B3: ADC-3 (AbA conjugated to linker drug LD3, structural formula X) (antibody, IgG1, V domains shown)
VH: QVQLVQSGAEVKKPGASVKVSCKASGYIFTAYTMHWVRQAPGQGLEWMGWIKPNNGLANYAQKFQGRVTMTRDTSISTAYMELSRLRSDDTAVYYCARSEITTEFDYWGQGTLVTVSS
VL: DIVMTQSPDSLAVSLGERATINCKSSESVDSYANSFLHWYQQKPGQPPKLLIYRASTRESGVPDRFSGSGSGTDFTLTISSLQAEDVAVYYCQQSKEDPLTFGGGTKVEIKR
modifications: TOP1i linker drug LD3 (structural formula VII, maleimide, hydrolyzed) linked via sulfhydryl groups of reduced cysteine residues; positions not given

Molecular target: c-Met (human, UniProt P08581 25-1390)
Sequence (P08581 25-1390): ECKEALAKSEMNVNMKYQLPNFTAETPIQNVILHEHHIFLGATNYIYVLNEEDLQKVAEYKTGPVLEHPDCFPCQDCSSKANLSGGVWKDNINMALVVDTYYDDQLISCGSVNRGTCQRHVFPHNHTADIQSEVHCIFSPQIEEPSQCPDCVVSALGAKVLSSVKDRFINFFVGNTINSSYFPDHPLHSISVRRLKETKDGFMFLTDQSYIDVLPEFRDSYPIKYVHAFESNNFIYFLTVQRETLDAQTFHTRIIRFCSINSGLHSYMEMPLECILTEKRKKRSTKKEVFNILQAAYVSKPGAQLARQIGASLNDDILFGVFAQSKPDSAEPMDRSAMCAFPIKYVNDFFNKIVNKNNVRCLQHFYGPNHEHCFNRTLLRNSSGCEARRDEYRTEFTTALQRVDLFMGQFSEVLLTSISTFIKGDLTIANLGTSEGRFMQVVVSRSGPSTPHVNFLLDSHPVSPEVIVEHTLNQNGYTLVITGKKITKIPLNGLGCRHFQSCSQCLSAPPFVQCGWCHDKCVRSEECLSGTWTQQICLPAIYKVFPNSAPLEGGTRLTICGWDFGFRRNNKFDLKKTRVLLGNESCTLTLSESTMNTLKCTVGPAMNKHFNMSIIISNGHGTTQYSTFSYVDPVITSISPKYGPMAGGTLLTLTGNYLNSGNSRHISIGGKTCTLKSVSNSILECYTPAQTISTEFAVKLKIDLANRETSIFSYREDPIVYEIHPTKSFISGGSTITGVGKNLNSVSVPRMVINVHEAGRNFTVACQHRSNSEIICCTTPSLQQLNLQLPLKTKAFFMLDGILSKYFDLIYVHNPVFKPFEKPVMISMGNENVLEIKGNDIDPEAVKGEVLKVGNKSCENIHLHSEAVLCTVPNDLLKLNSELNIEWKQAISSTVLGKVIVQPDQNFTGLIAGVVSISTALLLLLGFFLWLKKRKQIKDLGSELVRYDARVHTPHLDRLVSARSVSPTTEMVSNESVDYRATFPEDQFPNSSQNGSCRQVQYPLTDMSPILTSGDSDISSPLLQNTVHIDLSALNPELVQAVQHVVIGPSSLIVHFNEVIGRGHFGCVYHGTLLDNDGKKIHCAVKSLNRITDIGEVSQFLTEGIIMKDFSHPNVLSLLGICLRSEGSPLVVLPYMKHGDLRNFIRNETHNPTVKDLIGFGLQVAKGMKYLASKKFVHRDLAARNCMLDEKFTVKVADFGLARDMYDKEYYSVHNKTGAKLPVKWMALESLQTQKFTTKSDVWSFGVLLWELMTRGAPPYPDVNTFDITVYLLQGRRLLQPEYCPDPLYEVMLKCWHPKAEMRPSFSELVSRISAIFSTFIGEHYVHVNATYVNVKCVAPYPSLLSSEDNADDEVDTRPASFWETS
Assay: cell-based or functional assay

| Binder | Cytotoxicity IC50 (nM), Calu-3 cells [nM] | Cytotoxicity IC50 (nM), HCC827 cells [nM] | Cytotoxicity IC50 (nM), HEK-293 cells (not different from control) [nM] | Cytotoxicity IC50 (nM), MIA PaCa-2 cells (not different from control) [nM] | Cytotoxicity IC50 (nM), NCI-H441 cells [nM] | Cytotoxicity IC50 (nM), NCI-H441 cells (second row so labelled) [nM] | Cytotoxicity IC50 (nM), NCI-H1573 cells (estimated due to curve-fitting issues) [nM] | Cytotoxicity IC50 (nM), SNU-5 cells [nM] | Cytotoxicity IC50 (nM), NCI-H820 cells [nM] | Cytotoxicity IC50 (nM), Hs 746T cells [nM] | Cytotoxicity IC50 (nM), NCI-H1573 cells [nM] |
| --- | --- | --- | --- | --- | --- | --- | --- | --- | --- | --- | --- |
| B1 | 20 | 0.85 | > 60 | > 60 | 0.25 | 0.3 | ~1 | 0.19 |  |  |  |
| B2 |  | 0.9 |  | > 60 |  | 0.25 | ~1 |  | 0.16 |  |  |
| B3 |  | 0.5 |  | > 60 |  |  |  |  | 0.06 | 0.05 | 1.1 |
